Measurements published in US20070172470A1, “Phosphatase regulation of nucleic acid transcription” (The Regents of the University of California, priority 2003, published 2007).

Key:
[1] = tested on: 28 aa CTD heptad repeat peptide with Ser 5 phosphate or Ser 2 phosphate; assay: CTD phosphopeptide phosphatase assay (malachite green); assay type: biochemical; details: 25 μM phosphopeptide, 60 mins at 37° C.
Protocol: The indicated amounts of. SCP1 were incubated with the phosphopeptide substrate and phosphate released was measured as described infra.
N-terminal biotinylated CTD phosphopeptides, comprised of 4 tandem repeats YSPTSPS and containing phosphoserine at position 2 or position 5, were synthesized (Alpha Diagnostics, San Antonio, Tex.). Phosphatase reaction mixtures (50 μl) containing 50 mM Tris-acetate, pH 5.5, 10 mM MgCl2, 0.5 mM DTT, 10% glycerol, 25 μM of phosphopeptide and wild type or mutant SCP1 were incubated for 60 mins at 37° C. The reactions were quenched by adding 0.5 ml of malachite green (Biomol). Phosphate release was measured at A620 and quantified relative to a phosphate standard curve.

[2] = tested on: rat insulin 1 promoter-luciferase reporter gene; assay: Rat insulin promoter-luciferase assay with LMX1 and E47; assay type: cell-based; details: LMX1 and E47 co-expressed
Source text: (§1) Gal4-DNA binding domain-SCP1 fusion protein expression plasmids-were cotransfected in HEK293 cells with a Gal 4-TKLuc reporter plasmid and luciferase gene expression quantitated. In all panels, results of triplicate transfections are shown +/− SD. Data is expressed as fold-activation experimental/control). […] The indicated amounts of SCP1 or mutant SCP1 expression plasmids were cotransfected in HEK293 cells along with Gal 4-VP16 expression and Gal 4-TK-Luc reporter plasmids and luciferase activity was quantitated. […] The indicated receptor expression plasmids were cotransfected with their cognate promoter-reporter plasmids with or without SCP1 or mutant SCP1 expression plasmids. Cells were treated or untreated with receptor-specific ligands as described infra. […] The indicated concentrations of SCP1 and mutant SCP1 expression plasmids were cotransfected with LMX1 and E47 expression plasmids and the rat insulin 1 promoter-luciferase reporter gene. Luciferase activity was measured as described.
(§2) Tissue Culture and Transfections: Human 293, COS7 and CV1 cells were grown at 37° C. in DMEM supplemented with 10% normal calf serum (BRL). Sub-confluent cells were transfected in 6 well tissue culture dishes using Effectene (Qiagen) according to the manufacturer's instructions. Reporter and activator plasmids (100 ng each) and Flag SCP1 (80 ng) or its mutant were used per well. […]

[3] = tested on: Gal 4-TK-Luc reporter stimulated by Gal 4-VP16; assay: Luciferase reporter assay, Gal 4-VP16 stimulated gene expression; assay type: cell-based, human; details: HEK293 cells
Source text: as §1, §2

B1: SCP1: small CTD phosphatase-1, full-length 261 aa human protein, SEQ ID NO:2 (protein, listed as Homo sapiens)
chain: MDSSAVITQISKEEARGPLRGKGDQKSAASQKPRSRGILHSLFCCVCRDDGEALPAHSGAPLLVEENGAIPKTPVQYLLPEAKAQDSDKICVVIDLDETLVHSSFKPVNNADFIIPVEIDGVVHQVYVLKRPHVDEFLQRMGELFECVLFTASLAKYADPVADLLDKWGAFRARLFRESCVFHRGNYVKDLSRLGRDLRRVLILDNSPASYVFHPDNAVPVASWFDNMSDTELHDLLPFFEQLSRVDDVYSVLRQPRPGS
In the case of B1, the “dephosphorylation of Ser 5 versus Ser 2 phosphopeptide” value [1] is reported as “preferentially dephosphorylates the Ser 5 phosphopeptide”, the “inhibition of luciferase expression” value ([2]; 40 ng SCP1 plasmid alone) is reported as over 90% and the “inhibition of luciferase expression” value ([2]; 40 ng SCP1 plasmid plus 20 ng mutant SCP1 plasmid) is reported as about 20%. The “Gal 4-VP16 stimulated luciferase activity” value [3] was “strongly inhibited”.
